Experimental data published in the supplement of paper PMC9170038.

System: MS2 coat protein
Test: apparent KD of MS2 coat protein; designed switch direction (-1 OFF switch, 1 ON switch): -1; higher = weaker reporter binding
Procedure, shortened: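 Stalled E. coli RNA polymerase transcribed designed RNA switches on Illumina chips, which were then titrated with SNAP-549-labelled MS2 coat protein, doubling from 0.7 or 1.5 nM to 3 µM. Steps lasted from 0.8–1.5 h at the lowest concentration to 10–20 min at the highest. The apparent KD is each design's median over clusters of curve-fitted normalised fluorescence.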

[1] = input ligand: microRNA oligo, concentration not stated
[2] = Eterna round: R95, input ligand: microRNA oligo, concentration not stated
[3] = Eterna round: R95, input ligand: FMN 200 uM
[4] = Eterna round: R95, input ligand: none

Row | Sequence | apparent KD of MS2 coat protein (input ligand: FMN 200 uM) [nM] | apparent KD of MS2 coat protein [1] [nM] | apparent KD of MS2 coat protein (input ligand: none) [nM] | apparent KD of MS2 coat protein [2] [nM] | apparent KD of MS2 coat protein [3] [nM] | apparent KD of MS2 coat protein [4] [nM]
1 | UAAGAUUACCGAGGAUAUGGUAGUACAUAUUAACCAGAAGGCGGACUCAACAUGAGGAUCACCCAUGUAUAAAGGGUAUUAGGU [JR_ExcNG1_Sub042] (Eterna round: R96, puzzle: Exclusion NG 1) | 84.7 | 60.3 | 60.3 |  |  | 
2 | UAAGUUUUGGUAGGAUAUACUUUAAAUUUCUCUAUCCAUACAUGAGGAUCACCCAUGUUUACAUUGUAGAAGGACCACUAUGUU [JR_ExcNG2_Sub056] (Eterna round: R96, puzzle: Exclusion NG 2) |  | 18.7 |  |  |  | 
3 | UAAUAUCUGCAGGAUAUCGGUGGAGCACACGUAUGAGAAGGGCAGACAUGAGGAUCACCCAUGUAUAGGGUCCG [BotMod 3 - Jieux - Exclusion 6] (Eterna round: R97, puzzle: Exclusion 6) | 136 |  | 37.7 |  |  | 
4 | UAAUGUAUAUAGGAUAUCUAGCUGGUAACAGCUAGAGAAGGAUGUACAUGAGGAUCACCCAUGUAAAUCUCAAU [Ex6/12-B2] (Eterna round: R97, puzzle: Exclusion 6) | 32.5 |  | 20.9 |  |  | 
5 | UAAUUAAGUGUGAGGAUAUGCUGGUCCUUGGAUCAGCAGAAGGCACAUGAGGAUCACCCAUGUAAUUUAUAUAU [Mat - Exclusion 4 - JL Mod - D52] (puzzle: Brourd's mod of Exclusion 4) |  |  |  | 85.5 |  | 
6 | UAAUUAAUAAGAUCAAUUAAUUAACAUGAGGAUCACCCAUGUGAGGAUAUCAGCUCGAUUAGAGCUGAGAAGGCACAAUAAUUA [ExNG3/17-C1] (Eterna round: R96, puzzle: Exclusion NG 3) |  | 39 |  |  |  | 
7 | UAAUUAGCAAGUAGAUCCGACAUGAGGAUCACCCAUGUUAUCUGAAAGAACGCAGAAUAAUUGUGAGCUCGUCUAAA [Sensor-V1 #2] (Eterna round: R97, puzzle: Sensor, turn-off variant 1) | 144 |  | 154 |  |  | 
8 | UACACUGCAUGAGGAUCAAACAUGAGGAUCACCCAUGUAUAGCAAGCUUUUUGCUCGUCUUAUAAUUAUGUAGUGUA [Electric Eye 12 - Jieux - Sensor, turn-off variant 1] (Eterna round: R97, puzzle: Sensor, turn-off variant 1) | 15 |  | 15.7 |  |  | 
9 | UACAUGAGGAUCACCCAUGUUUUGUCGUGUAUGGUAUUUAUCUAGGAUAUCAAUGUAUUUAAUUAUGAGAAGGAGAAUAUUAAU [JMF's solution 45] (Eterna round: R96, puzzle: Exclusion NG 3) | 45.4 | 29.6 | 44.6 |  |  | 
10 | UACAUGAGGAUCACCCAUGUUUUGUCGUGUAUGGUAUUUAUCUAGGAUAUCAAUUUAGUUACUUAUGAGAAGGAGAAUAUUAAU [JMF's solution 77] (Eterna round: R96, puzzle: Exclusion NG 3) | 33.8 | 22.3 | 38.7 |  |  | 
11 | UACAUGAGGAUCACCCAUGUUUUGUCGUGUAUGGUAUUUAUCUAGGAUAUCAAUUUAGUUAUGUAUGAGAAGGAGAAUAUUAAU [JMF's solution 78] (Eterna round: R96, puzzle: Exclusion NG 3) | 43.7 | 33.9 | 46.4 |  |  | 
12 | UACAUGAGGAUCACCCAUGUUUUGUCGUGUAUGGUAUUUAUCUAGGAUAUCAUUGUAUUUAUUUAUGAGAAGGAGAAUAUUAAU [JMF's solution 96] (Eterna round: R96, puzzle: Exclusion NG 3) | 34.4 | 24 | 32.6 |  |  | 
13 | UACAUGAGGAUCACCCAUGUUUUGUCGUGUAUGGUAUUUAUCUAGGAUAUCAUUUUAGUUAGUUAUGAGAAGGAGAAUAUUAAU [JMF's solution 88] (Eterna round: R96, puzzle: Exclusion NG 3) |  | 26.4 |  |  |  | 
14 | UACCGUGGUUAGGAUAUACCGUGACACCGCUGAGUAGAAGGAACCACAUGAGGAUCACCCAUGUAAUAUGAAGG [Eternabot (L2) Solution 94] (Eterna round: R97, puzzle: Exclusion 6) | 159 |  | 51.9 |  |  | 
15 | UACCUGAGGCAAAGCUUUAGGUAAACAUGAGGAUCACCCAUGUAGGAUAUGGUAGGCAAAGCUUACCAGAAGGACAUGUUAAUU [Mat - Exclusion NG 3 - Mod of JL - D34] (Eterna round: R96, puzzle: Exclusion NG 3) | 341 | 79.5 | 83 |  |  | 
16 | UACCUGAGGCUUUGCUUUAGGUAUACAUGAGGAUCACCCAUGUAGGAUAUGGUAGGCUUUGCUUACCAGAAGGACAUGUUAAUU [JL ENG3 1.09] (Eterna round: R96, puzzle: Exclusion NG 3) | 141 | 30.9 | 29 |  |  | 
17 | UAGAAACAUGAGGAUCACCCAUGUGAGGAUAUGAAAAAGAAAAGAAAAGAAAGAAGAAUCAGAAGGCACAAAGU [salish99-ex1_r3_087] (puzzle: Exclusion 1) |  |  |  | 27.2 | 30.5 | 32.3

Row | Sequence | apparent KD of MS2 coat protein (input ligand: FMN 200 uM) [nM] | apparent KD of MS2 coat protein [1] [nM] | apparent KD of MS2 coat protein (input ligand: none) [nM] | apparent KD of MS2 coat protein [2] [nM] | apparent KD of MS2 coat protein [3] [nM] | apparent KD of MS2 coat protein [4] [nM]
18 | UAGAAUCGAGGAUAUACAUGAGGAUCACCCAUGUGUGGCCACUUGGUGUGGUCGUCAGGUAGAAGGCGAUUACA [Exclusion 3 - Mod of Jieux's Gilly Gone Silly 23 v.4] (puzzle: Exclusion 3) |  |  |  | 30.9 | 26.9 | 39.4
19 | UAGAAUCGAGGAUAUACAUGAGGAUCACCCAUGUGUGGCCAUACGGUGUGGUCGUCAGGUAGAAGGCGAUUAUA [Exclusion 3 - Mod of Jieux's Gilly Gone Silly 23 v.2] (puzzle: Exclusion 3) |  |  |  | 28 |  | 
20 | UAGACCUCGUCAGGAUAUCCAGGUUCUUCGCCCGGAGAAGGGACAUGAGGAUCACCCAUGUAGGAGAGCAUCGCUGUCGAGCAA [Redixeri] (Eterna round: R96, puzzle: Exclusion NG 1) | 19.3 | 11.5 | 18.3 |  |  | 
21 | UAGAUGGGAGGAUAUACGUAGAUGCGGAUUCGUGUGGUGCUACAUGAGGAUCACCCAUGUAGAAGGCCCGUCUU [JL-ex2-2.25 Mayanne mod] (puzzle: Exclusion 2) |  |  |  | 15.6 |  | 
22 | UAGCAUUGCCUUUGGUAGUGCAUUACAUGAGGAUCACCCAUGUAGGAUAUGGUAGGCUUUGCUUACCAGAAGGACAUGAUAAUU [JL ENG3 1.05] (Eterna round: R96, puzzle: Exclusion NG 3) | 135 | 38.9 | 48.7 |  |  | 
23 | UAGCAUUGCCUUUGGUAGUGCUUUACAUGAGGAUCACCCAUGUAGGAUAUGGUCGGCUUUGCUGACCAGAAGGACAUGUGUAUU [MOD ENG3 1.04 by JL] (Eterna round: R96, puzzle: Exclusion NG 3) | 130 | 94.4 | 80.7 |  |  | 
24 | UAGGAUACCGUCAGGAUAUAGAGUUCCCACAGACUCUAGAAGGGACAUGAGGAUCACCCAUGUCGUGCAACGUU [Eternabot (L1) Solution 54] (Eterna round: R97, puzzle: Brourd's mod of Exclusion 4) | 20.2 |  | 16.2 |  |  | 
25 | UAGGCGUAAGGAUAUAUCUUUGGACGAGCGAGGGACCAGAGAUAGAAGGUACAUGAGGAUCACCCAUGUGGGUC [Eternabot (L1) Solution 41] (Eterna round: R97, puzzle: Exclusion 4) | 189 |  | 64.9 |  |  | 
26 | UAGGUGUGAGGAUAUGGUAAAGAUAAGAUGAUGAAAGAACUCCAGAAGGCACAUGAGGAUCACCCAUGUAGAAG [Mat - Exclusion 4 - Mod of JL - D30] (puzzle: Exclusion 4) |  |  |  | 22.8 | 27.9 | 24.7
27 | UAGUACAGAGGAUAUACAUGAGGAUCACCCAUGUGUUUCAGCUAGGAGACUAGCGAAAGUAGAAGGCUGUACUG [salish99_ex3_r4_010] (Eterna round: R97, puzzle: Exclusion 3) | 26.2 |  | 11.4 |  |  | 
28 | UAGUGGGUACGAAGGAGUAGUUUGAGCGUACGUUCUGUAACAUGAGGAUCACCCAUGUAGCUUUUUGCUCGACUUAU [JR_SV3TOV2_Sub037] (puzzle: Sensor v3, turn-off variant 2) |  |  |  | 55.7 | 28.9 | 29.4
29 | UAUACACAUGAGGAUCACCCAUGUGAGGAUAUGUUAAUUUUAAUGAAAAUUAAAAUUAACAGAAGGCACAUAUA [JR_Exclusion1_Sub025] (puzzle: Exclusion 1) |  |  |  | 67.2 |  | 
30 | UAUAUAUAGUAAGGAUAUGUAAUUAUUUUACAAACAGAAGGUACUGACAUGAGGAUCACCCAUGUUUUAGUGUGGGCAUGUAGA [JMF's solution 46] (Eterna round: R96, puzzle: Exclusion NG 1) |  | 39.7 |  |  |  | 
31 | UAUAUAUAGUAAGGAUAUGUAAUUAUUUUAUAGACAGAAGGUACUGACAUGAGGAUCACCCAUGUUUUAGUGUGGGCAUGUAGA [JMF's solution 50] (Eterna round: R96, puzzle: Exclusion NG 1) |  | 60.9 |  |  |  | 
32 | UAUAUAUAGUAAGGAUAUGUAAUUUUUUUAUAAACAGAAGGUACUGACAUGAGGAUCACCCAUGUUUUAGUGUGGGCAUGUAGA [JMF's solution 32] (Eterna round: R96, puzzle: Exclusion NG 1) |  | 78.3 |  |  |  | 
33 | UAUAUAUAGUAAGGAUAUGUAUAUAUUUUAUGAACAGAAGGUACUGACAUGAGGAUCACCCAUGUUUUAGUGUGGGCAUGUAGA [JMF's solution 70] (Eterna round: R96, puzzle: Exclusion NG 1) | 49.4 | 38.8 | 64.8 |  |  | 
